Source: paper PMC9127583 (iScience, 2022)

Biological target: full-length Hsp70 (UniProt P0DMV8 1-641)
Experiment: NMR titration

full-length Hsp70, sequence (P0DMV8 whole entry): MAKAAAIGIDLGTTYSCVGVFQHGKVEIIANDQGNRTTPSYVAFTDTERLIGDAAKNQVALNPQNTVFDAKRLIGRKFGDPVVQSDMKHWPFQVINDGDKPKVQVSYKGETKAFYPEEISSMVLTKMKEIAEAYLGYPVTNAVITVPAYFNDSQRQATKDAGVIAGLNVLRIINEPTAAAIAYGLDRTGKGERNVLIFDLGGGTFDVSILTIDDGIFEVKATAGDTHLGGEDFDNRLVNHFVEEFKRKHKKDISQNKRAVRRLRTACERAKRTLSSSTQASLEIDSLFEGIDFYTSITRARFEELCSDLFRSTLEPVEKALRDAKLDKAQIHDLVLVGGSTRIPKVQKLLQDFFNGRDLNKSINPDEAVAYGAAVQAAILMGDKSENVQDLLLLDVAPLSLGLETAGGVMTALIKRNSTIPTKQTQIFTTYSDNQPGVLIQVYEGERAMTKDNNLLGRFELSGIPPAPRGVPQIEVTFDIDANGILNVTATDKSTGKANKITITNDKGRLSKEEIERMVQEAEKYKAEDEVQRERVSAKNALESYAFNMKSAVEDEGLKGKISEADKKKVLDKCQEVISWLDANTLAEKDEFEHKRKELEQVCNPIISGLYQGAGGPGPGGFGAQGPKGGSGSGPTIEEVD

B1: FUS-LC (residues 1-163) (domain or fragment, UniProt P35637 1-163, looked up)
chain: MASNDYTQQATQSYGAYPTQPGQGYSQQSSQPYGQQSYSGYSQSTDTSGYGQSSYSSYGQSQNTGYGTQSTPQGYGSTGGYGSSQSSQSSYGQQSSYPGYGQQPAPSSTSGSYGSSSQSSSYGQPQSGSYSQQPSYGGQQQSYGQQQSYNPPQGYGQQNQYNS
B1: binds.
